Source: publication PMC3467086

T1: NF90 dsRBDs (mouse, UniProt Q9Z1X4 380-590)
T1 sequence: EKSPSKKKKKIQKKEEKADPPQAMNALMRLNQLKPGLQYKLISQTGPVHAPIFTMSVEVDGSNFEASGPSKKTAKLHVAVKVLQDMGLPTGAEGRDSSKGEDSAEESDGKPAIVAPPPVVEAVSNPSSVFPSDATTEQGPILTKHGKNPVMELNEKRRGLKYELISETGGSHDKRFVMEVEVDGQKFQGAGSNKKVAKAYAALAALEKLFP

B1: ss17-A10/Css17-U10 dsRNA (dsRNA)
RNA 1: CCCCACCACCAUCACUUAAAAAAAAAA
RNA 2: UUUUUUUUUUAAGUGAUGGUGGUGGGG

Assays:
Assay in all cases: EMSA
[1] = target: NF90ΔC381 (DZF);NF45ΔN28 (DZF) (mouse;mouse, UniProt Q9Z1X4;Q9CXY6 1-380;29-390, |)
NF90 dsRBDs = target: T1, NF90 dsRBDs
[2] = target: NF90ΔC591 (DZF + both dsRBDs);NF45 (partner in long complex) (mouse;mouse, UniProt Q9Z1X4;Q9CXY6 1-590;29-390, |)
Sequence of NF90ΔC591 (DZF + both dsRBDs);NF45 (partner in long complex) (Q9CXY6 29-390, stated change not applied, one chain of several): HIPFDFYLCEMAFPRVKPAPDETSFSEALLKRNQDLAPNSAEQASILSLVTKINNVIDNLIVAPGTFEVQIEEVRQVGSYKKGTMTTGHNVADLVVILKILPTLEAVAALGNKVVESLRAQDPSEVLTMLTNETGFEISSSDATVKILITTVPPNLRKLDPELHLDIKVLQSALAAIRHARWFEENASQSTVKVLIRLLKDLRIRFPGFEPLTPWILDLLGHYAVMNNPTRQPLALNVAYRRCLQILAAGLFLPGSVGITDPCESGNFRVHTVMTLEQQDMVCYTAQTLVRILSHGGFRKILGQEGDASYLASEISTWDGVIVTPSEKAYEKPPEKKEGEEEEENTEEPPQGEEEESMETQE

| Binder | binding result [1] | binding result (NF90 dsRBDs) | binding result [2] |
| --- | --- | --- | --- |
| B1 | no binding | binds | binds |
| CCCCACCACCAUCACUUAAAAAAAAAA (ssRNA) [ss17-A10] | no binding |  |  |
